Experimental data published in US20220193132A1 (NATIONAL RESEARCH COUNCIL OF CANADA, published 2022).
Substitutions are numbered along the chain they refer to.

Key:
[1] = target: T1, EGFRvIII amino acid residues 15 to 37 with Lys34 to Ala mutation (human); experiment: yeast display flow cytometry, Myc-normalized;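 also: Anti-EGFRvIII monoclonal antibodies tested by flow cytometry on yeast displaying alanine-substituted fragments, two-color indirect fluorescence with anti-Myc signal tracking fusion protein expression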
T1 construct: mutation is already in the entry
T1 peptide: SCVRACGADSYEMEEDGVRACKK
Excerpt: (§1) Assessment of the binding of anti-EGFRvIII mAbs to the fusion proteins expressed on yeast cell surface was done by flow cytometry analysis. Briefly, yeast cells were labeled with both the anti-hEGFRvIII mAb and chicken anti-Myc antibody, the latter being used to monitor the level of expression of the fusion protein. Following a wash step, binding of the primary antibodies is probed by a two-color indirect fluorescence labeling using secondary antibodies specific for mouse and chicken antibodies, respectively.
(§2) To further characterize mAb epitopes within the EGFRvIII 15-37 region, an alanine scan of this region was performed, and modified fragments were expressed at the surface of the yeast. […] The resulting peptides were expressed at the surface of the yeast and each anti-EGFRvIII mAbs was tested on the corresponding yeast mutant strain by flow cytometry analysis. Thus, this assay determined the contribution of each amino acid(s) in the monoclonal antibody binding.

[2] = target: T2, EGFRvIII amino acid residues 15 to 37 with Glu29 to Ala mutation (human); experiment: yeast display flow cytometry, Myc-normalized;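 also: Anti-EGFRvIII monoclonal antibodies tested by flow cytometry on yeast displaying alanine-substituted fragments, two-color indirect fluorescence with anti-Myc signal tracking fusion protein expression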
T2 construct: mutation is already in the entry
T2 peptide: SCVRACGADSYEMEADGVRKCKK
Excerpt: as §1, §2

[3] = target: T3, EGFRvIII amino acid residues 15 to 37 with Ser15 to Ala mutation (human); experiment: yeast display flow cytometry, Myc-normalized;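 also: Anti-EGFRvIII monoclonal antibodies tested by flow cytometry on yeast displaying alanine-substituted fragments, two-color indirect fluorescence with anti-Myc signal tracking fusion protein expression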
T3 construct: mutation is already in the entry
T3 peptide: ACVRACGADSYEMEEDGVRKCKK
Excerpt: as §1, §2

[4] = target: T4, EGFRvIII amino acid residues 15 to 37 with Lys36 to Ala mutation (human); experiment: yeast display flow cytometry, Myc-normalized;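 also: Anti-EGFRvIII monoclonal antibodies tested by flow cytometry on yeast displaying alanine-substituted fragments, two-color indirect fluorescence with anti-Myc signal tracking fusion protein expression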
T4 construct: mutation is already in the entry
T4 peptide: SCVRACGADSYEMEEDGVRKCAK
Excerpt: as §1, §2

[5] = target: T5, EGFRvIII amino acid residues 15 to 37 with Cys16 to Ala mutation (human); experiment: yeast display flow cytometry, Myc-normalized
T5 construct: mutation is already in the entry
T5 peptide: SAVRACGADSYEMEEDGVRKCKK
Excerpt: as §1, §2

[6] = target: T6, EGFRvIII amino acid residues 15 to 37 with Asp23 to Ala mutation (human); experiment: yeast display flow cytometry, Myc-normalized
T6 construct: mutation is already in the entry
T6 peptide: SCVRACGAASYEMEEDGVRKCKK
Excerpt: as §1, §2

[7] = target: T7, EGFRvIII amino acid residues 15 to 37 with Glu26 to Ala mutation (human); experiment: yeast display flow cytometry, Myc-normalized
T7 construct: mutation is already in the entry
T7 peptide: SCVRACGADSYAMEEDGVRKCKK
Excerpt: as §1, §2

[8] = target: T8, EGFRvIII amino acid residues 15 to 37 with Met27 to Ala mutation (human); experiment: yeast display flow cytometry, Myc-normalized
T8 construct: mutation is already in the entry
T8 sequence (peptide, as listed by the source, change not shown): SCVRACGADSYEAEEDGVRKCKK
Excerpt: as §1, §2

[9] = target: T9, EGFRvIII amino acid residues 15 to 37 with Gly31 to Ala mutation (human); experiment: yeast display flow cytometry, Myc-normalized
T9 construct: mutation is already in the entry
T9 peptide: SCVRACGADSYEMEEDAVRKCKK
Excerpt: as §1, §2

[10] = target: T10, EGFRvIII amino acid residues 15 to 37 with Tyr25 to Ala mutation (human); experiment: yeast display flow cytometry, Myc-normalized
T10 construct: mutation is already in the entry
T10 peptide: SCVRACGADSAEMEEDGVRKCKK
Excerpt: as §1, §2

[11] = target: T11, EGFRvIII amino acid residues 15 to 37 with Arg33 to Ala mutation (human); experiment: yeast display flow cytometry, Myc-normalized
T11 construct: mutation is already in the entry
T11 peptide: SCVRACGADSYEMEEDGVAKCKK
Excerpt: as §1, §2

[12] = target: T12, EGFRvIII amino acid residues 15 to 37 with Val17 to Ala mutation (human); experiment: yeast display flow cytometry, Myc-normalized
T12 construct: mutation is already in the entry
T12 peptide: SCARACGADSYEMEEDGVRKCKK
Excerpt: as §1, §2

[13] = target: T13, EGFRvIII amino acid residues 15 to 37 with Ser24 to Ala mutation (human); experiment: yeast display flow cytometry, Myc-normalized
T13 construct: mutation is already in the entry
T13 peptide: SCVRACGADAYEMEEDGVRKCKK
Excerpt: as §1, §2

[14] = target: T14, EGFRvIII amino acid residues 15 to 37 with Asp30 to Ala mutation (human); experiment: yeast display flow cytometry, Myc-normalized
T14 construct: mutation is already in the entry
T14 peptide: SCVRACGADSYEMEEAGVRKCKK
Excerpt: as §1, §2

[15] = target: T15, EGFRvIII amino acid residues 15 to 37 with Lys37 to Ala mutation (human); experiment: yeast display flow cytometry, Myc-normalized
T15 construct: mutation is already in the entry
T15 peptide: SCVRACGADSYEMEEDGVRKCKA
Excerpt: as §1, §2

[16] = target: T16, EGFRvIII amino acid residues 15 to 37 with Val32 to Ala mutation (human); experiment: yeast display flow cytometry, Myc-normalized
T16 construct: mutation is already in the entry
T16 peptide: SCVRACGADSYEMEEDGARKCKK
Excerpt: as §1, §2

[17] = target: T17, EGFRvIII amino acid residues 15 to 37 with Glu28 to Ala mutation (human); experiment: yeast display flow cytometry, Myc-normalized
T17 construct: mutation is already in the entry
T17 peptide: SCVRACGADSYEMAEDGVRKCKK
Excerpt: as §1, §2

[18] = target: T18, recombinant human wild type EGFR protein (extracellular domain), denatured (human, UniProt P00533 25-645); experiment: ELISA Exp 2, purified mAb 1 ug/ml;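 also: ELISA of purified mAb binding to plate-coated antigen, native or heat/DTT-denatured, with pNPP substrate developed for 30 min and incubations at room temperature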
T18 construct: Same protein as m23 after 95 C for 5 min in PBS with 40 mM DTT (denatured, reduced); also called wt EGFR Denatured
Description: (§3) Pre- and post-immune sera titers of animals were assessed by ELISA on recombinant EGFRvIII protein. Unless otherwise stated, all incubations were performed at room temperature. […] Microplates were washed three times in PBS and blocked for 30 min with PBS containing 1% bovine serum albumin (BSA, Sigma Cat #A7030). Blocking buffer was removed and 25 μl of serial dilutions of sera samples were added. […] After a 1-h incubation, microplates were washed 4 times and 25 μl of p-nitrophenyl phosphate (pNPP) substrate (Sigma-Aldrich Canada Co., Oakville, ON) at 1 mg/ml in carbonate buffer at pH 9.6 was added and further incubated for 30 min.
(§4) Antigens at 1-2 mg/ml were incubated at 95° C. for 5 min in PBS containing DTT at a final concentration of 40 mM. They were then incubated on ice for 5 min and diluted at their final coating concentration for ELISA purpose.
(§5) ELISA was performed as described above (serum titer determination) using 25 μl of mAb supernatant (Exp 1) or purified mAb at 1 μg/ml (Exp 2).

[19] = target: T19, recombinant human EGFRvIII protein (extracellular domain), denatured (human, UniProt P00533 298-623); experiment: ELISA Exp 2, purified mAb 1 ug/ml;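 also: ELISA of purified mAb binding to plate-coated antigen, native or heat/DTT-denatured, with pNPP substrate developed for 30 min and incubations at room temperature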
T19 construct: Same protein as m21 after 95 C for 5 min in PBS with 40 mM DTT (denatured, reduced); also called EGFRvIII Denatured
Description: as §3, §4, §5

[20] = target: T20, recombinant human EGFRvIII protein (extracellular domain), native (human, UniProt P00533 298-623); experiment: ELISA Exp 2, purified mAb 1 ug/ml;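 also: ELISA of purified mAb binding to plate-coated antigen, native or heat/DTT-denatured, with pNPP substrate developed for 30 min and incubations at room temperature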
T20 construct: also called hEGFRvIII
Description: as §3, §4, §5

[21] = target: T21, recombinant human wild type EGFR protein (extracellular domain), native (human, UniProt P00533 25-645); experiment: ELISA Exp 2, purified mAb 1 ug/ml;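 also: ELISA of purified mAb binding to plate-coated antigen, native or heat/DTT-denatured, with pNPP substrate developed for 30 min and incubations at room temperature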
T21 construct: also called wt EGFR; EGFR WT
Description: as §3, §4, §5

[22] = target: T22, EGFRvIII, full length, overexpressed on glioblastoma cells (human, UniProt P00533 298-623); experiment: flow cytometry dose-response on U87MG-EGFRvIII cells, apparent Kd
T22 construct: Cells overexpress full length EGFRvIII (deletion of exons 2-7 of EGFR); Cell line (U87MG or DKMG) is named under assay; also called U87MG-EGFRvIII; U87vIII

[23] = target: T23, EGFRvIII amino acid residues 15 to 37 with Gly21 to Ala mutation (human); experiment: yeast display flow cytometry, alanine scan
T23 construct: mutation is already in the entry
T23 peptide: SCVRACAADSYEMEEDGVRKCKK
Excerpt: as §1, §2

[24] = target: T24, EGFRvIII amino acid residues 15 to 37 with Cys20 to Ala mutation (human); experiment: yeast display flow cytometry, alanine scan
T24 construct: mutation is already in the entry
T24 peptide: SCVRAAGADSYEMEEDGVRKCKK
Excerpt: as §1, §2

[25] = target: T25, EGFRvIII amino acid residues 15 to 37 with Arg18 to Ala mutation (human); experiment: yeast display flow cytometry, alanine scan
T25 construct: mutation is already in the entry
T25 peptide: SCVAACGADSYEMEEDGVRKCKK
Excerpt: as §1, §2

[26] = target: T26, EGFRvIII amino acid residues 15 to 37 with Cys35 to Ala mutation (human); experiment: yeast display flow cytometry, alanine scan
T26 construct: mutation is already in the entry
T26 peptide: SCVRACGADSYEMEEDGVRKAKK
Excerpt: as §1, §2

[27] = target: T22, EGFRvIII, full length, overexpressed on …; experiment: cell-based or functional assay
[28] = target: T27, EGFRvIII fragment amino acid residues 15 to 37, displayed on yeast (human); experiment: yeast surface display, flow cytometry
T27 construct: also called aa 15-37; fragment 15-37
T27 peptide: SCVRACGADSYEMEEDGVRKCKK
Excerpt: as §1

[29] = target: T18, recombinant human wild type EGFR …; experiment: ELISA Exp 1, mAb supernatant
[30] = target: T19, recombinant human EGFRvIII protein …; experiment: ELISA Exp 1, mAb supernatant
[31] = target: T20, recombinant human EGFRvIII protein …; experiment: ELISA Exp 1, mAb supernatant
[32] = target: T21, recombinant human wild type EGFR …; experiment: ELISA Exp 1, mAb supernatant
[33] = target: T22, EGFRvIII, full length, overexpressed on …; experiment: cell-based or functional assay; remark: listed apart in the source

B1: F263-4B3 (antibody, V domains shown)
VH: EVQLQQSGPELVKPGSSVKISCKASGYTFTDYNMDWVKQSHGKSLEWIGTINPNNGGTSYNQKFKGKATLTVDKSSNTAYMELRSLTSEDSAVYYCARGYDYDLWFAYWGQGTLVTVSA
VL: EIVLTQSPALMAASPGEKVTITCSVSSSISSSNLHWYQQKSETSPKPWIYGTSNLASGVPVRFSGSGSGTSYSLTISSMEAEDAATYYCQQWSSYPLTFGAGTKLELE
notes: Mouse hybridoma mAb
[1]
  % of binding vs wild-type fragment 15-37: 136%
[2]
  % of binding vs wild-type fragment 15-37: 71.6%
[3]
  % of binding vs wild-type fragment 15-37: 94.7%
[4]
  % of binding vs wild-type fragment 15-37: 99.2%
[5]
  % of binding vs wild-type fragment 15-37: 169%
[6]
  % of binding vs wild-type fragment 15-37: 94.1%
[7]
  % of binding vs wild-type fragment 15-37: 102%
[8]
  % of binding vs wild-type fragment 15-37: 101%
[9]
  % of binding vs wild-type fragment 15-37: 49.9%
[10]
  % of binding vs wild-type fragment 15-37: 98.8%
[11]
  % of binding vs wild-type fragment 15-37: 68.4%
[12]
  % of binding vs wild-type fragment 15-37: 146%
[13]
  % of binding vs wild-type fragment 15-37: 194%
[14]
  % of binding vs wild-type fragment 15-37: 94.3%
[15]
  % of binding vs wild-type fragment 15-37: 170%
[16]
  % of binding vs wild-type fragment 15-37: 92.4%
[17]
  % of binding vs wild-type fragment 15-37: 86.7%
[18]
  ELISA absorbance 405 nm: 0.003 A405
[19]
  ELISA absorbance 405 nm: 0.603 A405
[20]
  ELISA absorbance 405 nm: 1.19 A405
[21]
  ELISA absorbance 405 nm: 0.066 A405
[22]
  Kd: 21.2 nM
[23]
  binding result: no binding (tested: 0-15% of wild-type binding)
[24]
  binding result: no binding (tested: 0-15% of wild-type binding)
[25]
  binding result: no binding (tested: 0-15% of wild-type binding)
[26]
  binding result: no binding (tested: 0-15% of wild-type binding)
[27]
  % survival (DM1 secondary-conjugate ADC surrogate assay, vs mouse IgG): 83%
[28]
  binding result: binds
[29]
  ELISA absorbance 405 nm: 0.041 A405
[30]
  ELISA absorbance 405 nm: 1.74 A405
[31]
  ELISA absorbance 405 nm: 1.5 A405
[32]
  ELISA absorbance 405 nm: 1.09 A405
[33]
  % internalization (pHrodo surrogate assay, vs 225 mAb): 61%

B2: F263-5D8 (antibody, V domains shown)
VH: B1 VH with E10D, M34I, N55Y, N77S
VL: B1 VL with A9V, L10F, E108K
notes: Mouse hybridoma mAb
[1]
  % of binding vs wild-type fragment 15-37: 151%
[2]
  % of binding vs wild-type fragment 15-37: 77.3%
[3]
  % of binding vs wild-type fragment 15-37: 93.1%
[4]
  % of binding vs wild-type fragment 15-37: 97.9%
[5]
  % of binding vs wild-type fragment 15-37: 154%
[6]
  % of binding vs wild-type fragment 15-37: 106%
[7]
  % of binding vs wild-type fragment 15-37: 37.9%
[8]
  % of binding vs wild-type fragment 15-37: 96.5%
[9]
  % of binding vs wild-type fragment 15-37: 40.4%
[10]
  % of binding vs wild-type fragment 15-37: 108%
[11]
  % of binding vs wild-type fragment 15-37: 71.8%
[12]
  % of binding vs wild-type fragment 15-37: 144%
[13]
  % of binding vs wild-type fragment 15-37: 246%
[14]
  % of binding vs wild-type fragment 15-37: 80.4%
[15]
  % of binding vs wild-type fragment 15-37: 194%
[16]
  % of binding vs wild-type fragment 15-37: 95.2%
[17]
  % of binding vs wild-type fragment 15-37: 81.6%
[18]
  ELISA absorbance 405 nm: 0 A405
[19]
  ELISA absorbance 405 nm: 0.848 A405
[20]
  ELISA absorbance 405 nm: 1.49 A405
[21]
  ELISA absorbance 405 nm: 0.159 A405
[22]
  Kd: 19.7 nM
[23]
  binding result: no binding (tested: 0-15% of wild-type binding)
[24]
  binding result: no binding (tested: 0-15% of wild-type binding)
[25]
  binding result: no binding (tested: 0-15% of wild-type binding)
[26]
  binding result: no binding (tested: 0-15% of wild-type binding)
[27]
  % survival (DM1 secondary-conjugate ADC surrogate assay, vs mouse IgG): 69%
[28]
  binding result: binds
[29]
  ELISA absorbance 405 nm: 0.049 A405
[30]
  ELISA absorbance 405 nm: 1.86 A405
[31]
  ELISA absorbance 405 nm: 1.43 A405
[32]
  ELISA absorbance 405 nm: 1.38 A405
[33]
  % internalization (pHrodo surrogate assay, vs 225 mAb): 64%
